Experimental data: PMC6368630
Values belong to the substance of their own block, whether it stands above or below them.

Key:
Assay in all cases: BRET (mG protein recruitment) in HEK293 cells
[1] = target: Venus-tagged mGsq; settings: highest WNT-5A concentration shown (about log 3 ng/ml); n = 5; mean ± s.e.m.; parent: est. 101; read off a plot
[2] = target: Venus-tagged mGsi; settings: mean ± s.e.m., read off a plot
[3] = target: Venus-tagged mGs; settings: highest WNT-5A concentration shown (about log 2.5-3 ng/ml); n = 8; mean ± s.e.m.; parent: est. 100.1; read off a plot
[4] = target: Venus-tagged mG13; settings: n = 6, mean ± s.e.m., read off a plot

response [3]: 102 % of vehicle
Substance: SNAP-FZD7-Rluc8 (from UniProt O75084) R470A

response ([4]; highest WNT-5A concentration shown (about log 3-3.5 ng/ml), parent: est. 105.5): 106 % of vehicle
response ([4]; second-highest WNT-5A concentration shown (about log 2.5 ng/ml), parent: est. 100.0): 103 % of vehicle
Substance: hFZD4-Nluc (from UniProt Q9ULV1) K436A

Further lines, the substance ahead of its results:

Substance: SNAP-FZD5-Rluc8 (from UniProt Q13467) R449A
response [1]: 103 % of vehicle

Substance: SNAP-FZD6-Rluc8 (from UniProt O60353) R416A
response ([2]; highest WNT-5A concentration shown (about log 3.5 ng/ml), wild type n = 7, R416A n = 6, parent: est. 104): 109 % of vehicle

Substance: mouse SMO-Rluc8 (from UniProt P56726) R455A
response ([2]; SAG alone, at the peak of the bell-shaped curve (about log -9.5 M), n = 6, parent: est. 100.9): 102 % of vehicle
